Test results published in patent US20250163157A1 (Boehringer Ingelheim, published 2025).
Residue numbers refer to the chain shown, from its start. Names may count otherwise.

B1: reference antibody (full-length bivalent, monospecific, agonistic anti-CD277 antibody; heavy chain of SEQ ID NO:94, light chain of SEQ ID NO:93) (antibody, human IgG1, kappa, L234A L235A, V domains shown)
VH: QVQLQQSGAELVKPGASVKLSCKASGYTFTRYYLYWVKQRPGQGLEWIGEINPNNGGTKFNEKFKSKATLTVDKSSRTTYIQLSSLTSEDSAVYYCSREDDYDGTPDAMDYWGQGTAVTVSS
VL: DIQMNQSPSSLSASLGDTITITCHASQNINLWLSWYQQRPGNIPKLLIYRASNLHTGVPSRFSGSGSATGFTLTISSLQPEDIATYYCQQGHSYPYTFGGGTKLDIKR
notes: also called parent antibody
B2: Antibody 47 (anti-CD277; VL parent, VH CDR2 N185S, K190N) (antibody, V domains shown)
VH: B1 VH with N54S, K59N
VL: DIQMNQSPSSLSASLGDTITITCHASQNINLWLSWYQQRPGNIPKLLIYRASNLHTGVPSRFSGSGSATGFTLTISSLQPEDIATYYCQQGHSYPYTFGGGTKLDIK
notes: also called EvB#47; EvB#23
B3: Antibody 52 (anti-CD277; VL CDR1 L31V, VH CDR2 N185S, K190N) (antibody, V domains shown)
VH: B1 VH with N54S, K59N
VL: B2 VL with L31V
notes: Its constructs use human IgG1 with L234A/L235A and human kappa; also called EvB#52; EvB#29

biological target: T1, recombinant CD277 (human, UniProt O00481 30-254, limits assumed); assay: SPR (Biacore), recombinant CD277 amine-coupled to CM5 chip, antibody as analyte, 1:1 Langmuir fit
T1 construct: It gives no isoform (BTN3A1, A2 or A3), construct limits or supplier; also called BTN3A; Butyrophilin 3 family member BTN3A
T1 sequence (O00481 30-254 limits assumed): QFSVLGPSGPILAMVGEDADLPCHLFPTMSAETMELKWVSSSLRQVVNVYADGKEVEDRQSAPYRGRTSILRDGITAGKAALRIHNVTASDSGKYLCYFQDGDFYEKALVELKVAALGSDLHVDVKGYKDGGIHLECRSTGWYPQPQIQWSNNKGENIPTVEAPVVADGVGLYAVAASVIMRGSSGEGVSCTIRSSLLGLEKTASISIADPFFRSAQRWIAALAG
Experimental: SPR assay was performed according to the state of the art. In short, recombinant CD277 was immobilized to the surface of a Biacore CM5 optical sensor chip by covalent EDC/NHS coupling following the Biacore amine coupling kit protocol. Antibody samples were applied as analytes in serial dilution allowing standardized comparison of all antibodies binding to the identical target molecule surface. Kinetic analysis data are based on 1:1 Langmuir curve fitting model and mean Langmuir on-rates, off-rates and KD values: see table 5.

| Kd [nM] | Binder |
| --- | --- |
| 2.8 | B1 |
| 26.3 | B2 |
| 13.9 | B3 |
